The source of these data is patent US20140112931A1 (UNIVERSITE DE MONTPELLIER 1, published 2014).

The target in assay [1] is T1, EGFR on EGFR-transfected NIH 3T3 cells (UniProt P00533 25-1210, limits assumed).
T1 construct: whole, on cells; also called ErbB1; HER1
Put plainly: flow cytometry on EGFR-transfected NIH 3T3 cells. (In general: Flow cytometry measures light scatter and fluorescence of single cells or particles in a stream.)

In assay [2] the target is T2, HER2 on HER2- or HER2/HER3-transfected NIH 3T3 cells (UniProt P04626 23-1255, limits assumed).
T2 construct: whole, on cells
Put plainly: flow cytometry on HER2-transfected NIH 3T3 cells.

Assay [3] addresses T3, HER3 receptor on cells (HER3- and HER2/HER3-transfected NIH 3T3 cells, SKBR3 cells, BxPC3 cells) (human, UniProt P21860 20-1342).
T3 construct: whole, on cells
Put plainly: flow cytometry on HER3-transfected NIH 3T3 cells.

Assay [4] deals with T3, HER3 receptor on cells (HER3- and …). Put plainly: flow cytometry on HER2/HER3-transfected NIH 3T3 cells.
For assay [5] the target is unchanged. Put plainly: FACS competition on SKBR3 cells: heregulin against HER3-specific positive control antibody B. Here is the method:
(§1) After one washing with PBS-1% BSA, anti-HER3 mAbs, at concentration giving 50% maximal binding, were added to each well for 1 h on ice.

For assay [6] the target is unchanged. The assay is described as follows: flow cytometry competition on SKBR3 cells; HRG varied; competitor: antibody 12H8-B11 at the concentration giving 50% maximal binding; antibody 12H8-B11 as the displaced probe, SKBR3 cells. Here is the method: as §1
Assay [7] addresses T4, human HER3-Fc protein (R&D system) (human, UniProt P21860 20-643).
T4 construct: Bought (R&D system); called soluble HER3-Fc; also called soluble HER3-Fc; HER3-Fc antigen; not shown: Fc part
The assay is described as follows: ELISA, HER3-Fc coated at 250 ng/ml.

B1: anti-HER3 antibody Ab6 (Merrimack Pharmaceuticals) (antibody, V domains shown)
VH: EVQLLESGGGLVQPGGSLRLSCAASGFTFSHYVMAWVRQAPGKGLEWVSSISSSGGWTLYADSVKGRFTISRDNSKNTLYLQMNSLRAEDTAVYYCTRGLKMATIFDYWGQGTLVTVSS
VL: QSALTQPASVSGSPGQSITISCTGTSSDVGSYNVVSWYQQHPGKAPKLIIYEVSQRPSGVSNRFSGSKSGNTASLTISGLQTEDEADYYCCSYAGSSIFVIFGGGTKVTVL
Regarding B1, the “geometric mean (flow cytometry)” value in assay [1] was determined as 0.2; in assay [2], 0.3; in assay [3], 7.8; in assay [4], 14.1.

B2: heregulin (HRG) (ligand, UniProt Q02297-6 177-237, looked up)
chain: SHLVKCAEKEKTFCVNGGECFMVKDLSNPSRYLCKCPNEFTGDRCQNYVMASFYKHLGIEF
notes: also called HRG ligand
The term IC50 denotes the point on the concentration scale where inhibition reaches its midpoint. Low values mean greater potency in that assay, high ones weaker potency in that assay. Regarding B2, in assay [5], the “IC50 (read off the curve)” value was about 2 nM. In assay [6], this molecule registered an IC50 of about 2.5 nM.

B3: anti-HER3 antibody U1-59 (Amgen/U3 Pharma-Daiichi Sankyo) (antibody, V domains shown)
VH: QVQLQQWGAGLLKPSETLSLTCAVYGGSFSGYYWSWIRQPPGKGLEWIGEINHSGSTNYNPSLKSRVTISVETSKNQFSLKLSSVTAADTAVYYCARDKWTWYFDLWGRGTLVTVSS
VL: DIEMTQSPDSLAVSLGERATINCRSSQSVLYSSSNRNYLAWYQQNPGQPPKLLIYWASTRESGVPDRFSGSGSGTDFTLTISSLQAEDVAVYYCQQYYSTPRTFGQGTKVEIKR
By EC50 is commonly meant the midpoint of the concentration-response curve. A low value points to higher potency in that assay. Regarding B3, the EC50 in assay [7] was about 0.2 µg/mL. Moreover, the “geometric mean (flow cytometry)” value in assay [1] is 0.2; in assay [2], 0.4; in assay [3] it was 9.3; in assay [4], 15.5.

B4: murine anti-HER3 monoclonal antibody 9F7-F11 (antibody, V domains shown)
VH: EVKLVESGGGLVQPGGSLKLSCAASGFTFSSYTMSWVRQTPEKRLEWVAYISDGGGVTYYPDTIKGRFTISRDNAKNTLYLQMSSLKSEDTAMYYCARDRYGLFAYWGQGTLVTVSA
VL: DIVMTQSQKFMSTSVGDRVSITCKASQNVGIAVAWYQQKPGQSPKLLIYSASNRYTGVPDRFTGSGSGTDFTLTISNMQSEDLADYFCQQYSNYPYTFGGGTKLEIK
With B4, the “geometric mean (flow cytometry)” value in assay [1] amounted to 0.4; in assay [2] it was 0.4; in assay [3], 1.8; in assay [4], 12.4.
